Residues, ends and D or L forms follow the SMILES beside them. No end group written: not given here. *: point of attachment. 5FAM = O=C1OC2(c3ccc(O)cc3Oc3cc(O)ccc32)c2ccc(C(=O)*)cc21; Flu = fluorescein

In experiment [1] the target is GINS (6xHis-3xFlag-Sld5, Psf1, Psf2, Psf3) for pulldown experiments (UniProt Q9BRT9).
The target in another experiment is T1, GINS tetramer (Homo sapiens, UniProt Q14691+Q9BRT9+Q9BRX5+Q9Y248).
T1 construct: made in house; host or cells: SF9 insect cells, single baculovirus made with pBig1a
The experiment is described as follows: Fluorescence polarisation of fluorescein-labelled GINI-core peptides with GINS. The format is binding. The conditions noted are these: room temperature. From the text:
As the predicted interface between the TopBP1-GINI region and GINS[32] was not evident in our cryo-EM map we used additional interaction experiments to validate a role for this motif in GINS binding. The GINI region had been loosely defined as sitting between TopBP1-BRCT3 and BRCT4 (Fig. 1a(i)). […] We mutated this core, and other regions of conservation, to generate the mutants TopBP1-Gcc (GINI centre core), Gcore (GINI core) and RI-III (regions I-III) (Fig. 3a, Supplementary Fig. 7). […] To test if this helix constituted a GINS-interaction surface, we used fluorescence polarisation (FP). A fluorescently labelled GINI-core peptide (Ala478-Gly497) bound the GINS tetramer with a dissociation constant of Kd of ~8 µM (Fig. 3d). […] We therefore concluded that the GINI region is a GINS interaction site in its own right, but with moderate binding affinity.
Fig. 3 The conserved core of the TopBP1-GINI domain is required for a stable interaction with GINS. a Domain model and T-COFFEE alignment (one-letter aa code) of TopBP1 proteins from humans (Q92547) Xenopus laevis (Q7ZZY3), Bos taurus (A0A3Q1LWE4) and Rattus norvegicus (A0A8I6GFZ6). […] Source data are provided as a Source data file. d Fluorescence polarisation measurements including dissociation constants (kD) calculations using recombinant GINS tetramer and fluorescently labelled TopBP1-GINI-core peptides (WT or Gpp (a)). […]

A further experiment has as its system GINS complex. In words: Size exclusion chromatography co-elution with GINS. Conditions: Superdex200; 20 µM of each component; 10 mM HEPES pH 7.5, 150 mM NaCl, 0.5 mM TCEP. The format is binding. As for the experimental part:
Recombinant TopBP1 and GINS proteins were mixed in an equimolar ratio to give a final concentration of 20 µM of each component and incubated on ice for at least 30 min prior to application to a Superdex200increase 10 300 column (GE Healthcare, Little Chalfont, UK) equilibrated in 10 mM HEPES pH 7.5, 150 mM NaCl, 0.5 mM TCEP.
On the technique in general: SEC sorts molecules by how far they enter the pores of the column.

The test system of a further experiment is GINS. The experiment is described as follows: Pulldown of recombinant TopBP1-BRCT0-5 by immobilised GINS, 150 mM NaCl. The class given is binding. Conditions: summary of recombinant protein interaction tests (yes/no). From the text: Fig. 1 GINS and TopBP1 interact. a (i) Domain model of human (hs) TopBP1, its conservation with BRCT1/2 and 3/4 domains (grey boxes) of budding yeast Dpb11 (scDpb11). Arrows point to binding domains for interacting proteins. (ii) Overview of TopBP1 wild type (WT) and BRCT deletion (Δ) and point mutants. GINS binding capabilities are labelled in red and green. Numbers, amino acid position; capital letters indicate amino acid substitutions. Amino acid substitutions of point mutants in BRCT4 (B4mut) and 5 (B5mut) are coloured orange. b Elution profiles of size exclusion chromatography (Superdex200) of individual recombinant TopBP1-BRCT0-5 protein (grey) and GINS tetramers (green), or of both upon incubation (blue). c Recombinant GINS immobilised on Flag-beads and control beads (Flag peptide-coupled beads) were used to pull down recombinant TopBP1-0-5-WT or TopBP1-ΔBRCT4/5 (compare a(ii)). SDS gels were silver stained. kDa specifies molecular weight marker bands. The experiment was done more than three times with similar results. Source data are provided as a Source data file. TEXT PRINTED IN THE PICTURE: (a) BRCT0-5-WT: GINS binding? (rec. proteins): yes | (a) ΔBRCT4/5: GINS binding? (rec. proteins): no | (a) ΔBRCT3: GINS binding? (rec. proteins): yes | (a) ΔBRCT0/1/2: GINS binding? (rec. proteins): yes | (a) B5mut: GINS binding? (rec. proteins): yes | (a) B4mut: GINS binding? (rec. proteins): no
Fig. 2 Protein structure of the GINS-TopBP1-BRCT4/5 complex. a Structural model of the GINS-TopBP1-BRCT4/5 complex. Crystal structures of the GINS subunits (PDB:2E9X) (shades of green, yellow), and the central BRCT4/5 domain of TopBP1 (PDB:3UEN) (grey) were docked into the cryo-EM volume shown as transparent volume. b Zoom-in of the BRCT4-Psf1 interface. The residues in stick representation appear crucial for the interface. Mutations to break the interaction are coloured pink (Psf1-I97R) and purple (TopBP1-B4mut; compare Fig. 1a(ii)). c Pulldown of the indicated recombinant TopBP1-BRCT0-5-strep versions (see Fig. 1a(ii)) by Flag-beads-immobilised recombinant GINS or Flag peptide-coupled control beads. Analysis was done by immunoblotting. The experiment was done more than three times with similar results. d Pulldown of the indicated recombinant TopBP1-BRCT0-5-WT-strep using immobilised GINS-WT or GINS carrying a Ile97 to arginine mutation in Psf1.TopBP1-Gcc/B4mut-strep (Figs. 1a(ii) and 3a) was used as a non-GINS binding control. The experiment was done twice with similar results. Source data are provided as a Source data file.
Fig. 3 The conserved core of the TopBP1-GINI domain is required for a stable interaction with GINS. a Domain model and T-COFFEE alignment (one-letter aa code) of TopBP1 proteins from humans (Q92547) Xenopus laevis (Q7ZZY3), Bos taurus (A0A3Q1LWE4) and Rattus norvegicus (A0A8I6GFZ6). Coloured boxes indicate GINI region mutants in sub-regions I (blue), II (green) and III (orange), and in the GINI core helix (red) (details in Supplementary Fig. 7). Amino acid substitutions, names of GINI core region mutations and corresponding GINS binding capabilities are shown. ., : and * indicate low conservation, high conservation and identical amino acids, respectively. b/c Pulldown of recombinant TopBP1-BRCT0-5-strep-WT or the indicated GINI region mutants (a) by bead-immobilised GINS or Flag peptide-coupled control beads. Analysis was done by immunoblotting. The experiments were done more than three times with similar results. Source data are provided as a Source data file. d Fluorescence polarisation measurements including dissociation constants (kD) calculations using recombinant GINS tetramer and fluorescently labelled TopBP1-GINI-core peptides (WT or Gpp (a)). For each peptide n = 3 independent experiments and data are presented as mean values +/−SEM. TEXT PRINTED IN THE PICTURE: (a) TopBP1-Gcc: GINS binding? (rec. proteins): no | (a) TopBP1-Gcore: GINS binding? […]

In experiment [2] the target is T2, GINS (HIS-(3C)-Sld5, Psf1, Psf2, Psf3) for structural and fluorescence polarisation studies (UniProt Q9BRT9 1-223; Q14691 1-196; Q9Y248 1-185; Q9BRX5 1-216).
T2 construct: Sld5 subunit of GINS; Psf1 subunit of GINS, with its B domain; Psf2 subunit of GINS; Psf3 subunit of GINS; A 3C site follows the His tag on Sld5; no cleavage is described; also called GINS tetramer; GINS complex; source: Sf9 insect cells, single baculovirus (pBig1a), purified (TALON, Superdex200); copies: + + +
The experiment is described as follows: fluorescence polarisation; 100 nM fluorescein-labelled peptide, increasing concentrations of GINS; 25 mM HEPES pH 7.5, 150 mM NaCl, 1 mM EDTA, 0.25 mM TCEP, 0.02% Tween 20; room temperature. Conditions: both partners purified. A general note: In fluorescence polarisation assays a small probe gives low polarisation when free and higher when bound to something large.

T1 sequence (Q14691 whole entry): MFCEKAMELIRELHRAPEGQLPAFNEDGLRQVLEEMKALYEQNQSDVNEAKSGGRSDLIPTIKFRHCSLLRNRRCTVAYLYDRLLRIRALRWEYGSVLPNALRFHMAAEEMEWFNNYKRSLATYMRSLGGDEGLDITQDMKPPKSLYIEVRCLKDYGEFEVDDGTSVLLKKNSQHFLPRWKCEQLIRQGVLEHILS
T1 sequence (Q9BRX5 whole entry): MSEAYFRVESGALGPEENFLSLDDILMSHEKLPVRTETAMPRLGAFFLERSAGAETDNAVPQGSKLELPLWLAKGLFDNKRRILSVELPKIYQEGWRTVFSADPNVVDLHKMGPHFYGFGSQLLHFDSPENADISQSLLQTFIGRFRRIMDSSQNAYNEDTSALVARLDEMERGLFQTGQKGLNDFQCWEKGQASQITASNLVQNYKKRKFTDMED
T1 sequence (Q9Y248 whole entry partner): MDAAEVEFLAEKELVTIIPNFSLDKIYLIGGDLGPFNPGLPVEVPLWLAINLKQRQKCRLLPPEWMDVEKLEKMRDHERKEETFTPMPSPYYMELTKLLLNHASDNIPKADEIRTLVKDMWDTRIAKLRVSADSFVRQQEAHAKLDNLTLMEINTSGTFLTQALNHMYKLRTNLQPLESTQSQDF
T1 sequence (Q9BRT9 whole entry partner): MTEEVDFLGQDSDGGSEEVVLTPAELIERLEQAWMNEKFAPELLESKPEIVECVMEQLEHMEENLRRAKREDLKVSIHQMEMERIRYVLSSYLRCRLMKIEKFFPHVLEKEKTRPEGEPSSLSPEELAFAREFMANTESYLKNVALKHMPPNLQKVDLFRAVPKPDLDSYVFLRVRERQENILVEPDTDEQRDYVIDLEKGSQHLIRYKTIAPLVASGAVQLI
GINS (6xHis-3xFlag-Sld5, Psf1, Psf2, Psf3) for pulldown experiments, sequence (Q9BRT9 whole entry, chain 1 of 4): as the sequence (Q9BRT9 whole entry partner) above
GINS (6xHis-3xFlag-Sld5, Psf1, Psf2, Psf3) for pulldown experiments, sequence (Q14691 whole entry, chain 2 of 4, further chain): as the sequence (Q14691 whole entry) above
GINS (6xHis-3xFlag-Sld5, Psf1, Psf2, Psf3) for pulldown experiments, sequence (Q9Y248 whole entry, chain 3 of 4, further chain): as the sequence (Q9Y248 whole entry partner) above
GINS (6xHis-3xFlag-Sld5, Psf1, Psf2, Psf3) for pulldown experiments, sequence (Q9BRX5 whole entry, chain 4 of 4, further chain): as the sequence (Q9BRX5 whole entry) above
T2 sequence (Q9BRT9 whole entry, chain 1 of 4): as the sequence (Q9BRT9 whole entry partner) above
T2 sequence (Q14691 whole entry, chain 2 of 4): as the sequence (Q14691 whole entry) above
T2 sequence (Q9Y248 whole entry, chain 3 of 4): as the sequence (Q9Y248 whole entry partner) above
T2 sequence (Q9BRX5 whole entry, chain 4 of 4): as the sequence (Q9BRX5 whole entry) above

Turning to “TopBP1-BRCT0-5-Gcc (from UniProt Q92547 1-766) (domain or fragment)”, in experiment [1], the reduction of nucleotide incorporation (α-32P-dCTP) in TopBP1-depleted Xenopus egg extract after add-back, 120 min time point is 21%.

In general, Kd refers to the free concentration of one partner at which half of the binding sites on the other are occupied at equilibrium, for simple one-to-one binding. For `CC(C)C[C@H](NC(=O)[C@H](CC(=O)O)NC(=O)[C@H](CCC(=O)O)NC(=O)[C@H](CC(=O)O)NC(=O)[C@H](C)NC(=O)[C@H](CCC(N)=O)NC(=O)[C@H](CCC(=O)O)NC(=O)[C@H](Cc1c[nH]cn1)NC(=O)[C@H](CCCCN)NC(=O)[C@H](CCC(=O)O)NC(=O)[C@H](CO)NC(=O)[C@@H]1CCCN1C(=O)[C@H](C)NC(=O)CNC(=O)[C@H](Cc1ccc(O)cc1)NC(=O)CNC(=O)c1ccc2c(c1)C(=O)OC21c2ccc(O)cc2Oc2cc(O)ccc21)C(=O)N[C@@H](CC(C)C)C(=O)N[C@@H](CO)C(=O)N[C@@H](CCC(N)=O)C(=O)N[C@@H](Cc1ccc(O)cc1)C(=O)N[C@@H](CCC(=O)O)C(=O)N[C@@H](CC(N)=O)C(=O)NCC(=O)O` [TOPBP1(478-497)] (5FAM-GYGAPSEKHEQADEDLLSQYENG-OH), the Kd at GINS tetramer (fluorescein-labelled peptide 100 nM, increasing GINS, 25 mM HEPES pH 7.5, 150 mM NaCl, 1 mM EDTA, 0.25 mM TCEP, 0.02% Tween 20, n = 3 independent experiments, interval printed in figure (7.037 - 8.809), read-out: dissociation constant Kd (fluorescence polarisation)) came to 7.88 µM.

For the molecule “Flu-GYGAPSEKHEQADEDPPSQYENG [TOPBP1(478-497) L490P L491P, fluorescein-labelled GINI-core peptide with LL to PP mutation]”, the “binding to GINS by fluorescence polarisation” value at GINS tetramer (peptide 100 nM, 150 mM NaCl, n = 3) is listed as “failed to bind”.

B1: TopBP1-ΔBRCT0/1/2: TopBP1-BRCT0-5 with BRCT0-2 module removed (protein)
chain: NSLNSKLEPTLENLENLDVSAFQAPEDLLDGCRIYLCGFSGRKLDKLRRLINSGGGVRFNQLNEDVTHVIVGDYDDELKQFWNKSAHRPHVVGAKWLLECFSKGYMLSEEPYIHANYQPVEIPVSHKPESKAALLKKKNSSFSKKDFAPSEKHEQADEDLLSQYENGSSTVVEAKTSEARPFNDSTHAEPLNDSTHISLQEENQSSVSHCVPDVSTITEEGLFSQKSFLVLGFSNENESNIANIIKENAGKIMSLLSRTVADYAVVPLLGCEVEATVGEVVTNTWLVTCIDYQTLFDPKSNPLFTPVPVMTGMTPLEDCVISFSQCAGAEKESLTFLANLLGASVQEYFVRKSNAKKGMFASTHLILKERGGSKYEAAKKWNLPAVTIAWLLETARTGKRADESHFLIENSTKEERSLETEITNGINLNSDTAEHP
modifications: left off: His, N-terminal, state not stated | Strep, C-terminal, state not stated
notes: TopBP1-BRCT0-5 with BRCT0-2 module removed
As to B1, the “co-elution with GINS from size exclusion column” value with GINS complex was “did not affect binding”. The “GINS binding? (rec. proteins)” value with GINS was “yes”.

B2: fluorescently labelled GINI-core peptide (Ala478-Gly497), WT (peptide)
peptide: Flu-GYGAPSEKHEQADEDLLSQYENG
modifications: not fully specified; printed as Flu-GYGAPSEKHEQADEDLLSQYENG
notes: three residues printed before the TopBP1 stretch Ala478-Gly497; human TopBP1 GINI core, Ala478-Gly497; also called TopBP1-GINI-core peptide WT; source: synthetic peptide (Peptide Protein Research Ltd)
B2 came in with a Kd in experiment [2] of roughly 8 µM.
